Experimental findings from the supplement of paper PMC7877785 are described below.

± gives the uncertainty stated by the source.

This data set can be described thus: self-splicing fitness, log relative to wild type (ln ratio); higher = more splicing; Tetrahymena group I intron in knt gene, E. coli kanamycin selection, DiMSum; sequences stand for … in CUCUCU…GGAGGGAAAAGUUAUCAGGCAUGCACCUGGUAGCUAGUCUUUAAACCAAUAGAUUGCAUCGGUUUAAAAGGCAAGACCGUCAAAUUGCGGGAAAGGGGUCAACAGCCGUUCAGUACCAAGUCUCAGGGGAAACUUUGAGAUGGCCUUGCAAAGGGUAUGGUAAUAAGCUGACGGACAUGGUCCUAACCACGCAGCCAAGUCCUAAGUCAACAGAUCUUCUGUUGAUAUGGAUGCAGUUCACAGACUAAAUGUCGGUCGGGGAAGAUGUAUUCUUCUCAUAAGAUAUAGUCGGACCUCUCCUUAAUGGGAGCUAGCGGAUGAAGUGAUGCAACACUGGAGCCGCUGGGAACUAAUUUGUAUGCGAAAGUAUAUUGAUUAGUUUUGGAGUACUCGUGGUCG
The essentials:
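The eight P1ex-region nucleotides of an intron in the knt kanamycin-resistance gene on pET-22b(+) were all randomised and the library put into E. coli BL21(DE3). Six replicate transformations were grown overnight at 37°C or 30°C on LB agar with or without 25 μg/mL kanamycin, together with 100 μg/mL carbenicillin, 50 μM IPTG and 0.2% rhamnose. Colonies were pooled and amplicon-sequenced on an Illumina HiSeq 2500. Fitness from DiMSum is the error-weighted combination of wild-type-normalised replicate fold changes, kanamycin over none.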

In the case of CCGGAGCAAUAUUACGGGAA, the “self-splicing fitness (ln)” value runs as follows: (30 °C) -2.09 ± 0.32; (37 °C) -2.13 ± 0.37.
Regarding CUGUAGCAAUAUUACGUGCC, the “self-splicing fitness (ln)” value was -3.49 ± 0.35 (30 °C) and -2.21 ± 0.24 (37 °C).
On the same counts, the results for UAACAGCAAUAUUACGCGAU are -3.97 ± 0.32 and -2.36 ± 0.23.
For CGGCAGCAAUAUUACGCUCA the same measures were -0.116 ± 0.15 and -0.137 ± 0.16.
Take GUAUAGCAAUAUUACGCGGG: the “self-splicing fitness (ln)” value is -3.7 ± 0.27 (30 °C) and -2.23 ± 0.26 (37 °C).
On the same counts, the results for AUCUAGCAAUAUUACGCCUA are -1.09 ± 0.16 and -0.389 ± 0.16.
For AUAAAGCAAUAUUACGGGGC the same measures were -3.6 ± 0.26 and -1.97 ± 0.22.
For UAUUAGCAAUAUUACGCAAA the same measures were -1.67 ± 0.3 and -1.83 ± 0.27.
Consider AUACAGCAAUAUUACGGCAG, for which the “self-splicing fitness (ln)” value is -2.21 ± 0.072 (30 °C) and -0.564 ± 0.077 (37 °C).
Take UCAGAGCAAUAUUACGUCGA: the “self-splicing fitness (ln)” value (30 °C) was -1.11 ± 0.072 and the “self-splicing fitness (ln)” value (37 °C) was -0.44 ± 0.11.
For GAUAAGCAAUAUUACGGUAU the same measures were -2.17 ± 0.1 and -1.46 ± 0.12.
On the same counts, the results for CAGCAGCAAUAUUACGGUAU are -3.51 ± 0.15 and -2.62 ± 0.13.
For GGAUAGCAAUAUUACGUUCG the same measures were -1.55 ± 0.12 and -1.64 ± 0.14.
On to GAGCAGCAAUAUUACGGUCG, for which the “self-splicing fitness (ln)” value is -2 ± 0.17 (30 °C) and -2.28 ± 0.17 (37 °C).
On the same counts, the results for ACGAAGCAAUAUUACGUCAU are -2.99 ± 0.12 and -2.81 ± 0.14.
For GCGGAGCAAUAUUACGGAGA the same measures were -2.07 ± 0.2 and -1.71 ± 0.41.
Turning to CAUGAGCAAUAUUACGGCAC, the “self-splicing fitness (ln)” value (37 °C) is -1.42 ± 0.3.
Regarding UCUCAGCAAUAUUACGUUCC, the “self-splicing fitness (ln)” value (30 °C) is -2.72 ± 0.36 and the “self-splicing fitness (ln)” value (37 °C) is -0.417 ± 0.28.
On the same counts, the results for AACGAGCAAUAUUACGUGCG are -2.23 ± 0.11 and -1.92 ± 0.15.
As to CAUCAGCAAUAUUACGCUAU, the “self-splicing fitness (ln)” value by setting is: (30 °C) -2.87 ± 0.13; (37 °C) -2.64 ± 0.2.
For AACUAGCAAUAUUACGAUAU the same measures were -1.26 ± 0.077 and -0.429 ± 0.11.
On the same counts, the results for GAACAGCAAUAUUACGGCGC are -0.147 ± 0.065 and -0.195 ± 0.09.
For CUUGAGCAAUAUUACGUUCU, the “self-splicing fitness (ln)” value (30 °C) was -2.75 ± 0.41 and the “self-splicing fitness (ln)” value (37 °C) was -3.71 ± 0.42.
On the same counts, the results for CCAGAGCAAUAUUACGGUAA are -2.75 ± 0.22 and -2.33 ± 0.26.
For CACCAGCAAUAUUACGUCUU the same measures were -3.59 ± 0.12 and -2.64 ± 0.15.
For CACGAGCAAUAUUACGCUAG, the “self-splicing fitness (ln)” value (37 °C) is -2.4 ± 0.28.
With AACGAGCAAUAUUACGGAGC, the “self-splicing fitness (ln)” value reads like this: (30 °C) -3.72 ± 0.19; (37 °C) -2.05 ± 0.15.
On the same counts, the results for ACCUAGCAAUAUUACGUCGC are -2.66 ± 0.18 and -0.636 ± 0.15.
As to GGCUAGCAAUAUUACGCCUU, the “self-splicing fitness (ln)” value (37 °C) was -0.73 ± 0.19.
Regarding GUAGAGCAAUAUUACGAGGG, the “self-splicing fitness (ln)” value (30 °C) was -3.25 ± 0.27 and the “self-splicing fitness (ln)” value (37 °C) was -2.38 ± 0.37.
On to UGAUAGCAAUAUUACGUGCC, for which the “self-splicing fitness (ln)” value reads like this: (30 °C) -2.61 ± 0.2; (37 °C) -1.26 ± 0.2.
For GUGAAGCAAUAUUACGCUGU the same measures were -2.74 ± 0.13 and -1.29 ± 0.12.
On the same counts, the results for UGGUAGCAAUAUUACGCUCU are -2.22 ± 0.2 and -1.31 ± 0.24.
On the same counts, the results for AACAAGCAAUAUUACGCUCU are -0.638 ± 0.075 and 0.0475 ± 0.089.
